The text below walks through data of patent publication US20230293638A1 (Eli Lilly, published 2023).

Numbered stars: 1 amine (or outer) side, 2 acyl side, 3 side chain; on linkers, the order of the positions; unused ones are H or OH. Square brackets hold non-standard residues; d marks the D form. Side chains are listed from the residue outwards. Ends that are not written are not given here. * marks the point of attachment. C20 diacid = O=C(O)CCCCCCCCCCCCCCCCCCC(=O)*; αMePhe(2-F) = C[C@](N)(Cc1ccccc1F)C(=O)O; γGlu = O=C(O)[C@H](CCC(=O)[*:2])N[*:1]; αMeL = CC(C)C[C@](C)(N)C(=O)O; αMeK = C[C@](N)(CCCCN)C(=O)O; AEEA = NCCOCCOCC(=O)O; Aib = CC(C)(N)C(=O)O

The test concerns the target human GLP-1 receptor (human, UniProt P43220 24-463). The test can be described thus: cell-based or functional assay.

B1: Peptide 167 (peptide)
peptide: Y[Aib]EGT[αMePhe(2-F)]TSDHSI[αMeL]LDEK([AEEA-AEEA-γGlu-C20 diacid])AQ[Aib]TFI[dE]YLIEGGPSSG-NH2
modifications: N-terminus assumed
SMILES: CC[C@H](C)[C@H](NC(=O)[C@H](CC(C)C)NC(=O)[C@H](Cc1ccc(O)cc1)NC(=O)[C@@H](CCC(=O)O)NC(=O)[C@@H](NC(=O)[C@H](Cc1ccccc1)NC(=O)[C@@H](NC(=O)C(C)(C)NC(=O)[C@H](CCC(N)=O)NC(=O)[C@H](C)NC(=O)[C@H](CCCCNC(=O)COCCOCCNC(=O)COCCOCCNC(=O)CC[C@H](NC(=O)CCCCCCCCCCCCCCCCCCC(=O)O)C(=O)O)NC(=O)[C@H](CCC(=O)O)NC(=O)[C@H](CC(=O)O)NC(=O)[C@H](CC(C)C)NC(=O)[C@](C)(CC(C)C)NC(=O)[C@@H](NC(=O)[C@H](CO)NC(=O)[C@H](Cc1c[nH]cn1)NC(=O)[C@H](CC(=O)O)NC(=O)[C@H](CO)NC(=O)[C@@H](NC(=O)[C@](C)(Cc1ccccc1F)NC(=O)[C@@H](NC(=O)CNC(=O)[C@H](CCC(=O)O)NC(=O)C(C)(C)NC(=O)[C@@H](N)Cc1ccc(O)cc1)[C@@H](C)O)[C@@H](C)O)[C@@H](C)CC)[C@@H](C)O)[C@@H](C)CC)C(=O)N[C@@H](CCC(=O)O)C(=O)NCC(=O)NCC(=O)N1CCC[C@H]1C(=O)N[C@@H](CO)C(=O)N[C@@H](CO)C(=O)NCC(N)=O
As for B1, the “hGLPIR cAMP EC50 ratio” value is 0.0487.

B2: Peptide 168 (peptide)
peptide: YXEGTXTSDHSIXLDEKAQXTFIXYLIEGGPSSGAPPPS
modifications: Aib2; αMeF(2F)6; αMeL13; K17((2-[2-(2-Amino-ethoxy)-ethoxy]-acetyl)2-(γGlu)-CO-(CH2)18-CO2H); Aib20; D-Glu24; C-terminal NH2
Regarding B2, the “hGLPIR cAMP EC50 ratio” value amounted to 0.0323.

B3: Peptide 174 (peptide)
peptide: YXEGTXTSDHSIXLDEKAQXTFIXYLIEGGPSSGAPPPS
modifications: Aib2; αMeF(2F)6; αMeL13; K17((2-[2-(2-Amino-ethoxy)-ethoxy]-acetyl)2-CO-(CH2)18-CO2H); Aib20; D-Glu24; C-terminal NH2
With B3, the “hGLPIR cAMP EC50 ratio” value came to 0.0968.

B4: Peptide 169 (peptide)
peptide: YXEGTXTSDHSIXLDEKAQXTFIXYLIEGGPSSGAPPPS
modifications: Aib2; αMeF(2F)6; αMeL13; K17((2-[2-(2-Amino-ethoxy)-ethoxy]-acetyl)2-(γGlu)-CO-(CH2)16-CO2H); Aib20; D-Glu24; C-terminal NH2
On to B4, for which the “hGLPIR cAMP EC50 ratio” value stood at 0.0136.

B5: Peptide 172 (peptide)
peptide: YXEGTXTSDHSIXLDXKAQXTFIXYLIEGGPSSGAPPPS
modifications: Aib2; αMeF(2F)6; αMeL13; Dab16; K17((2-[2-(2-Amino-ethoxy)-ethoxy]-acetyl)2-(γGlu)-CO-(CH2)18-CO2H); Aib20; D-Glu24; C-terminal NH2
With B5, the “hGLPIR cAMP EC50 ratio” value came to 0.038.

B6: Peptide 171 (peptide)
peptide: YXEGTXTSDHSIXLDXKAQXTFIXYLIEGGPSSGAPPPS
modifications: Aib2; αMeF(2F)6; αMeL13; Orn16; K17((2-[2-(2-Amino-ethoxy)-ethoxy]-acetyl)2-(γGlu)-CO-(CH2)18-CO2H); Aib20; D-Glu24; C-terminal NH2
As for B6, the “hGLPIR cAMP EC50 ratio” value was found to be 0.0609.

B7: Peptide 173 (peptide)
peptide: YXEGTXTSDHSIXLDXKAQXTFIXYLIEGGPSSGAPPPS
modifications: Aib2; αMeF(2F)6; αMeL13; Dap16; K17((2-[2-(2-Amino-ethoxy)-ethoxy]-acetyl)2-(γGlu)-CO-(CH2)18-CO2H); Aib20; D-Glu24; C-terminal NH2
As for B7, the “hGLPIR cAMP EC50 ratio” value turned out to be 0.0373.

B8: Peptide 21 (peptide)
peptide: Y[Aib]EGTFTSDYSI[αMeL]LDEK([AEEA-AEEA-γGlu-C20 diacid])AQ[αMeK]AFIEYLLEGGPSSGAPPPS-NH2
modifications: N-terminus assumed
SMILES: CC[C@H](C)[C@H](NC(=O)[C@H](Cc1ccccc1)NC(=O)[C@H](C)NC(=O)[C@](C)(CCCCN)NC(=O)[C@H](CCC(N)=O)NC(=O)[C@H](C)NC(=O)[C@H](CCCCNC(=O)COCCOCCNC(=O)COCCOCCNC(=O)CC[C@H](NC(=O)CCCCCCCCCCCCCCCCCCC(=O)O)C(=O)O)NC(=O)[C@H](CCC(=O)O)NC(=O)[C@H](CC(=O)O)NC(=O)[C@H](CC(C)C)NC(=O)[C@](C)(CC(C)C)NC(=O)[C@@H](NC(=O)[C@H](CO)NC(=O)[C@H](Cc1ccc(O)cc1)NC(=O)[C@H](CC(=O)O)NC(=O)[C@H](CO)NC(=O)[C@@H](NC(=O)[C@H](Cc1ccccc1)NC(=O)[C@@H](NC(=O)CNC(=O)[C@H](CCC(=O)O)NC(=O)C(C)(C)NC(=O)[C@@H](N)Cc1ccc(O)cc1)[C@@H](C)O)[C@@H](C)O)[C@@H](C)CC)C(=O)N[C@@H](CCC(=O)O)C(=O)N[C@@H](Cc1ccc(O)cc1)C(=O)N[C@@H](CC(C)C)C(=O)N[C@@H](CC(C)C)C(=O)N[C@@H](CCC(=O)O)C(=O)NCC(=O)NCC(=O)N1CCC[C@H]1C(=O)N[C@@H](CO)C(=O)N[C@@H](CO)C(=O)NCC(=O)N[C@@H](C)C(=O)N1CCC[C@H]1C(=O)N1CCC[C@H]1C(=O)N1CCC[C@H]1C(=O)N[C@@H](CO)C(N)=O
For B8, the “hGLPIR cAMP EC50 ratio” value was 0.402.
